Biological target: FIX remaining in commercially-available FIX-deficient human plasma (trace amount) (human, UniProt P00740 47-461)
Test: cell-based or functional assay

FIX remaining in commercially-available FIX-deficient human plasma (trace amount), sequence (P00740 47-461 limits assumed): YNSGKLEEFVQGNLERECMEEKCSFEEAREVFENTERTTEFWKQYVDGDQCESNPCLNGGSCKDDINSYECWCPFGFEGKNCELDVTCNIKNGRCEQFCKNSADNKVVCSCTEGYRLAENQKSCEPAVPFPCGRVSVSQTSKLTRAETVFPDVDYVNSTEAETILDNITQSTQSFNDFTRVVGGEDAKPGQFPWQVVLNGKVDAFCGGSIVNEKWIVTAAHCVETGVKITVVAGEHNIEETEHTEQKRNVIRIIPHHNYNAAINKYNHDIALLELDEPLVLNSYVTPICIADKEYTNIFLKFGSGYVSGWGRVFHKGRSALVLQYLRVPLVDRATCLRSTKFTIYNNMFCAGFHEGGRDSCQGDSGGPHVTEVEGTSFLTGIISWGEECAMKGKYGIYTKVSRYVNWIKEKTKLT

B1: ACE910 (Emicizumab), anti-FIXa/FX bispecific antibody (Q499-z121/J327-z119/L404-k) (bispecific antibody, human IgG4 S228P, kappa)
heavy 1: QVQLVESGGGLVQPGGSLRLSCAASGFTFSYYDIQWVRQAPGKGLEWVSSISPSGQSTYYRREVKGRFTISRDNSKNTLYLQMNSLRAEDTAVYYCARRTGREYGGGWYFDYWGQGTLVTVSSASTKGPSVFPLAPCSRSTSESTAALGCLVKDYFPEPVTVSWNSGALTSGVHTFPAVLQSSGLYSLSSVVTVPSSSLGTQTYTCNVDHKPSNTKVDKRVESKYGPPCPPCPAPEFLGGPSVFLFPPKPKDTLMISRTPEVTCVVVDVSQEDPEVQFNWYVDGVEVHNAKTKPREEQYNSTYRVVSVLTVLHQDWLNGKEYKCKVSNKGLPSSIEKTISKAKGQPREPQVYTLPPSQKEMTKNQVSLTCLVKGFYPSDIAVEWESNGQPENNYKTTPPVLDSDGSFFLYSKLTVDKSRWQEGNVFSCSVMHEALHNRYTQKSLSLSP
heavy 2: QVQLVQSGSELKKPGASVKVSCKASGYTFTDNNMDWVRQAPGQGLEWMGDINTRSGGSIYNEEFQDRVIMTVDKSTDTAYMELSSLRSEDTATYHCARRKSYGYYLDEWGEGTLVTVSSASTKGPSVFPLAPCSRSTSESTAALGCLVKDYFPEPVTVSWNSGALTSGVHTFPAVLQSSGLYSLSSVVTVPSSSLGTQTYTCNVDHKPSNTKVDKRVESKYGPPCPPCPAPEFLGGPSVFLFPPKPKDTLMISRTPEVTCVVVDVSQEDPEVQFNWYVDGVEVHNAKTKPREEQYNSTYRVVSVLTVLHQDWLNGKEYKCKVSNKGLPSSIEKTISKAKGQPREPQVYTLPPSQEEMTKNQVSLTCLVKGFYPSDIAVEWESNGQPENNYKTTPPVLDSDGSFFLYSKLTVDKSRWQEGNVFSCSVMHEALHNHYTQESLSLSP
light: DIQMTQSPSSLSASVGDRVTITCKASRNIERQLAWYQQKPGQAPELLIYQASRKESGVPDRFSGSRYGTDFTLTISSLQPEDIATYYCQQYSDPPLTFGGGTKVEIKRTVAAPSVFIFPPSDEQLKSGTASVVCLLNNFYPREAKVQWKVDNALQSGNSQESVTEQDSKDSTYSLSSTLTLSKADYEKHKVYACEVTHQGLSSPVTKSFNRGEC
For B1, the “APTT shortening ratio with 100 ug/mL ACE910 in FIX-deficient human plasma without FIX formulation, after further addition of anti-FIX-Gla antibody (150 ug/mL)” value was -3%.
